According to publication PMC7873564:

Target: mouse IgMκ paraprotein TEPC183
Assay: flow cytometry on cells
Details: mean ± 1 SD from three independent experiments; parent: est. 3.7; read off a plot

- response (MFI index (x10^2)): 2.1
Substance: human IgM Fc receptor (FcµR), wild type (from UniProt O60667-1) N66del
